# Measurements as given in the supplement of paper PMC10598134.
# ± gives the standard deviation.
# Experiment: collision cross section of modified peptide (TIMS, N2, iRT-aligned); higher = larger / more extended gas-phase ion
# Summary of the method: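 Collision cross section values rest on the Mason-Schamp equation applied to calibrated, run-aligned mobility data from synthetic peptides. Mobility (1/K0) was calibrated with three reference ions and aligned per run to the median iRT peptide deviation, and 1–3 technical replicates of the most abundant feature per charge state were averaged. Data came from a timsTOF Pro/HT in dda-PASEF mode (nitrogen, ~2.4 mbar) after a 120-min nanoflow C18 gradient at 60 °C.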
# [1] = charge state: 2, modification: Hydroxyproline
# [2] = charge state: 2, modification: Trimethyl (K)
# [3] = charge state: 3, modification: Trimethyl (K)
# [4] = charge state: 2, modification: hydroxyisobutyryl
# [5] = charge state: 3, modification: hydroxyisobutyryl
# [6] = charge state: 2, modification: Nitro (Y)
# [7] = charge state: 2, modification: Methyl (R)
# [8] = charge state: 3, modification: Methyl (R)
# [9] = charge state: 2, modification: HexNAc (ST)
# [10] = charge state: 2, modification: Citrullination (R)
# [11] = charge state: 3, modification: Citrullination (R)
# [12] = charge state: 2, modification: Formyl
# [13] = charge state: 2, modification: Glutarylation
# [14] = charge state: 2, modification: GlyGly (K)
# [15] = charge state: 3, modification: GlyGly (K)
# [16] = charge state: 2, modification: Acetyl (K)
# [17] = charge state: 3, modification: Acetyl (K)
# [18] = charge state: 3, modification: Glutarylation
# [19] = charge state: 2, modification: Butyryl
# [20] = charge state: 3, modification: Butyryl
# [21] = charge state: 2, modification: Phospho (Y)
substance,measurement,setting,value
GLQGPPGK [_GLQGPP(Hydroxyproline)GK_],collision cross section,[1],294.56 ± 0.29 Å²
IVSGKDYNVTANSK [_IVSGK(Trimethyl (K))DYNVTANSK_],collision cross section,[2],419.62 ± 1.6 Å²
same,collision cross section,[3],475.29 ± 2.4 Å²
IVFSGNLFQHQEDSKK [_IVFSGNLFQHQEDSK(hydroxyisobutyryl)K_],collision cross section,[4],503.66 ± 0.71 Å²
same,collision cross section,[5],534.25 ± 1.1 Å²
LEENHYNTYISK [_LEENHYNTY(Nitro (Y))ISK_],collision cross section,[6],425.11 ± 1.1 Å²
same,collision cross section,"charge state: 3, modification: Nitro (Y)",478.71 ± 0.24 Å²
ITESVAETAQTIKK [_ITESVAETAQTIK(hydroxyisobutyryl)K_],collision cross section,[4],425.76 ± 3.1 Å²
same,collision cross section,[5],520.92 ± 2 Å²
GGGFGAHGRGR [_GGGFGAHGR(Methyl (R))GR_],collision cross section,[7],351.67 ± 1.1 Å²
same,collision cross section,[8],421.56 ± 5.3 Å²
KVTLSVLSR [_KVT(HexNAc (ST))LSVLSR_],collision cross section,[9],375.11 ± 0.13 Å²
same,collision cross section,"charge state: 3, modification: HexNAc (ST)",463.47 ± 1 Å²
GSGLGARGSSYGVTSTESYK [_GSGLGAR(Citrullination (R))GSSYGVTSTESYK_],collision cross section,[10],458.29 ± 0.18 Å²
same,collision cross section,[11],548.1 Å²
GETASKLQSEISR [_GETASK(Trimethyl (K))LQSEISR_],collision cross section,[3],463.43 ± 1.5 Å²
GPPRGGPGGELPR [_GPPR(Methyl (R))GGPGGELPR_],collision cross section,[8],472.6 ± 2.6 Å²
TLDEILQEKK [_TLDEILQEK(Formyl)K_],collision cross section,[12],372.98 ± 1.9 Å²
GSLGAQKLANTCFNEIEK [_GSLGAQK(Gluratylation)LANTCFNEIEK_],collision cross section,[13],469.86 Å²
LLFSNTAAQKLR [_LLFSNTAAQK(GlyGly (K))LR_],collision cross section,[14],433.64 ± 0.96 Å²
same,collision cross section,[15],492.29 ± 2 Å²
SPDEAYAIAKK [_SPDEAYAIAK(Acetyl (K))K_],collision cross section,[16],369.21 ± 0.94 Å²
same,collision cross section,[17],447.3 ± 0.6 Å²
PGPRGQR [_P(Hydroxyproline)GPRGQR_],collision cross section,[1],294.67 Å²
LTSLNVKYNNDK [_LTSLNVK(Formyl)YNNDK_],collision cross section,[12],404.27 ± 0.2 Å²
YTAQVDAEEK [_Y(Nitro (Y))TAQVDAEEK_],collision cross section,[6],358.81 ± 0.55 Å²
LDINTNTYTSQDLK [_LDINTNTYTS(HexNAc (ST))QDLK_],collision cross section,[9],444.16 ± 0.035 Å²
LLFSNTAAQKLR [_LLFSNTAAQK(Acetyl (K))LR_],collision cross section,[16],400.1 ± 2.9 Å²
same,collision cross section,[17],478.35 ± 0.83 Å²
FDDTNPEKEEAK [_FDDTNPEK(GlyGly (K))EEAK_],collision cross section,[14],402.92 ± 5.6 Å²
same,collision cross section,[15],486.07 ± 0.34 Å²
VNIGQGSHPQKVK [_VNIGQGSHPQK(Gluratylation)VK_],collision cross section,[13],424.75 ± 1.8 Å²
same,collision cross section,[18],494.72 ± 8.3 Å²
IHVQSSSDSSDEPAEKR [_IHVQSSSDSSDEPAEK(Butyryl)R_],collision cross section,[19],452.33 ± 0.51 Å²
same,collision cross section,[20],504.47 ± 2.6 Å²
FNALFAQGNYSEAAK [_FNALFAQGNY(Phospho (Y))SEAAK_],collision cross section,[21],426.34 ± 0.64 Å²
TEVNSGFFYK [_TEVNSGFFY(Nitro (Y))K_],collision cross section,[6],367.43 ± 0.8 Å²
TFGKAAGPSLSHTSGGTQSK [_TFGK(hydroxyisobutyryl)AAGPSLSHTSGGTQSK_],collision cross section,[4],498.68 ± 0.33 Å²
same,collision cross section,[5],512.39 ± 2.8 Å²
VSPASSVDSNIPSSQGYKK [_VSPASSVDSNIPSSQGYK(Biotin)K_],collision cross section,"charge state: 2, modification: Biotin",474.43 Å²
same,collision cross section,"charge state: 3, modification: Biotin",539.94 ± 1.6 Å²
IHVQSSSDSSDEPAEKR [_IHVQSSSDSSDEPAEK(Dimethyl (K))R_],collision cross section,"charge state: 3, modification: Dimethyl (K)",519.62 ± 3.4 Å²
LEEVTGKLQVAR [_LEEVTGK(GlyGly (K))LQVAR_],collision cross section,[14],407.08 ± 0.86 Å²
same,collision cross section,[15],463.74 ± 1.1 Å²
RGATPPAPPR [_R(Methyl (R))GATPPAPPR_],collision cross section,[7],338.68 ± 2.1 Å²
same,collision cross section,[8],463.88 ± 2.9 Å²
DAEAAEATAEGALKAEK [_DAEAAEATAEGALK(Gluratylation)AEK_],collision cross section,[13],438.1 ± 0.96 Å²
same,collision cross section,[18],545.34 ± 0.13 Å²
LDEKENLSAK [_LDEK(Acetyl (K))ENLSAK_],collision cross section,[16],366.13 ± 0.94 Å²
STCTYVGAAK [_STCTY(Phospho (Y))VGAAK_],collision cross section,[21],346.22 ± 0.0011 Å²
GADFLVTEVENGGSLGSKK [_GADFLVTEVENGGSLGSK(Trimethyl (K))K_],collision cross section,[3],548.47 ± 1.1 Å²
STGLELETPSLVPVKK [_STGLELETPSLVPVK(Crotonyl)K_],collision cross section,"charge state: 2, modification: Crotonyl",437.59 Å²
same,collision cross section,"charge state: 3, modification: Crotonyl",521.61 Å²
FGTINIVHPKLGSYTK [_FGTINIVHPK(GlyGly (K))LGSYTK_],collision cross section,[15],511.55 ± 1.9 Å²
YSSSSIPEPFGSRGSPR [_YSSSSIPEPFGSR(Citrullination (R))GSPR_],collision cross section,[10],439.28 ± 0.2 Å²
same,collision cross section,[11],523.88 Å²
GARLPGPVSSAR [_GAR(Methyl (R))LPGPVSSAR_],collision cross section,[7],360.12 ± 1.2 Å²
same,collision cross section,[8],474.74 ± 8.7 Å²
VNVEAPDVNLEGLGGKLK [_VNVEAPDVNLEGLGGK(Trimethyl (K))LK_],collision cross section,[2],469.62 ± 0.99 Å²
same,collision cross section,[3],545.57 ± 1.8 Å²
VDVEVPDVSLEGPEGKLK [_VDVEVPDVSLEGPEGK(Succinyl)LK_],collision cross section,"charge state: 2, modification: Succinyl",456.12 ± 0.34 Å²
same,collision cross section,"charge state: 3, modification: Succinyl",501.13 ± 1.5 Å²
SDDESSQKDIK [_SDDESSQK(Butyryl)DIK_],collision cross section,[19],378.95 ± 0.72 Å²
DLGKFQVATDALK [_DLGK(hydroxyisobutyryl)FQVATDALK_],collision cross section,[4],409.13 ± 0.55 Å²
SSGPGGQNVNKVNSK [_SSGPGGQNVNK(Propionyl)VNSK_],collision cross section,"charge state: 2, modification: Propionyl",404.47 ± 0.49 Å²
VLDSGAPIKIPVGPETLGR [_VLDSGAPIK(Acetyl (K))IPVGPETLGR_],collision cross section,[16],463.33 ± 3.4 Å²
same,collision cross section,[17],505.97 Å²
CYYGSDTAGR [_CY(Phospho (Y))YGSDTAGR_],collision cross section,[21],358.39 Å²
IQTKAGEATVK [_IQTK(Formyl)AGEATVK_],collision cross section,[12],359.75 ± 0.38 Å²
VLTANSNPSSPSAAKR [_VLTANSNPSSPSAAK(hydroxyisobutyryl)R_],collision cross section,[4],434.9 ± 0.8 Å²
same,collision cross section,[5],533.81 ± 2 Å²
SITHSTVGSKGEK [_SITHSTVGSK(GlyGly (K))GEK_],collision cross section,[14],404.23 ± 1.4 Å²
same,collision cross section,[15],469.84 ± 1.3 Å²
TTEETSKPK [_TTEETSK(hydroxyisobutyryl)PK_],collision cross section,[4],347.15 ± 3.9 Å²
GSLGAQKLANTCFNEIEK [_GSLGAQK(GlyGly (K))LANTCFNEIEK_],collision cross section,[14],500.39 ± 1.8 Å²
same,collision cross section,[15],528.63 ± 18 Å²
LGVATVAKGVCGACK [_LGVATVAK(GlyGly (K))GVCGACK_],collision cross section,[14],453.34 ± 1.4 Å²
same,collision cross section,[15],497.41 ± 0.34 Å²
IHNAENIQPGEQKYEYK [_IHNAENIQPGEQK(Butyryl)YEYK_],collision cross section,[20],530.34 ± 2.7 Å²
VGLQVVAVKAPGFGDNR [_VGLQVVAVK(GlyGly (K))APGFGDNR_],collision cross section,[14],471.7 ± 1.6 Å²
same,collision cross section,[15],536.75 ± 1.1 Å²
ASEALLKQLK [_ASEALLK(Trimethyl (K))QLK_],collision cross section,[2],371.28 ± 0.027 Å²
same,collision cross section,[3],439.12 ± 1.8 Å²
